Measured values reported in US20240034796A1 (GENUV, published 2024).

What was measured:
[1] = biological target: T1, extracellular domain (ECD) PD-1 protein from mouse (mouse, UniProt Q02242 25-169); assay: protein-based ELISA, coated PD-1 ECD, antibody at 1 ug/ml
T1 construct: extracellular domain; also called mouse PD-1 antigen
T1 sequence (looked up): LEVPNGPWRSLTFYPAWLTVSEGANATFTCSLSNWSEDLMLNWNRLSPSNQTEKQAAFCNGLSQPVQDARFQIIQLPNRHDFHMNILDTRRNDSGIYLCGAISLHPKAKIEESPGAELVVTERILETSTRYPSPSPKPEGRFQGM
Procedure: (§1) To determine the cross-reactivity of the antibody to PD-1 antigens, protein-based ELISA was performed. To summarize the ELISA analysis, a 96-well plate (Thermo scientific) was coated with 10 ng of the extracellular domain (ECD) PD-1 proteins from human, mouse, rabbit, cynomolgus, and rat overnight at 4° C. […] After washing, a secondary antibody (anti-human IgG antibody) was added and incubated at 37° C. for 2 hours. After washing, TMB substrate (abcam) was added, and the color reaction was stopped with STOP solution (abcam). Absorbance at 450/650 nm was measured using a microplate reader (ThermoFisher).

[2] = biological target: T2, extracellular domain (ECD) PD-1 protein from human (human, UniProt Q15116 25-170); assay: as above
T2 construct: the whole entry is named; also called human PD-1 antigen
Procedure: as §1

human PD-1 protein [3] = biological target: T3, human PD-1 protein (human, UniProt Q15116 25-167, limits assumed); assay: SPR, binding kinetics to human PD-1
T3 construct: also called human PD-1 antigen

human PD-1 protein [4] = biological target: T3, human PD-1 protein; assay: SPR; ratio against the U299-WT parent

T3 sequence (Q15116 25-167 limits assumed): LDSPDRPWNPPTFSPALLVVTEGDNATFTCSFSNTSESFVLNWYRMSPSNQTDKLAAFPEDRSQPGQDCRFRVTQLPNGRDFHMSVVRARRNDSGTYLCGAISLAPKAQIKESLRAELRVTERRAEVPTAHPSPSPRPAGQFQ
T2 sequence (Q15116 25-170 limits assumed): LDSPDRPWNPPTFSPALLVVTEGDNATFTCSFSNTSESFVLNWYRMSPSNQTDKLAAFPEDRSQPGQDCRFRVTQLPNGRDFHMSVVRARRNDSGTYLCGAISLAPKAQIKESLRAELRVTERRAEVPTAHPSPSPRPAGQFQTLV

B1: humanized antibody 1G1-h68 (antibody, human IgG4, kappa, V domains shown)
VH: QVQLVQSGAEVKKPGASVKVSCKASGYTFTGYWMHWVRQAPGQGLEWIGMIHPNSDTTTYNEKFKNRVTMTRDTSISTAYMELSRLRSDDTAVYYCTGTDQAAWFAFWGQGTTVTVSS
VL: DIVMTQTPLSLSVTPGQPASISCRSSQNIVHSNGDTYLEWYLQKPGQSPQLLIYKVSKRFSGVPDRFSGSGSGTDFTLKISRVEAEDVGVYYCFQGSHVPWTFGGGTKVEIKR
notes: hIgG4 heavy chain, human kappa light chain
B1: binds [1]; binds [2].

B2: AHF16556 (antibody, V domains shown)
VH: QVQLVQSGAEVKKPGASVKVSCKASGYTFTGYWMHWVRQAPGQGLEWIGMIHPNSDTTVYNWKFKNRVTMTRDTSISTAYMELSRLRSDDTAVYYCAGTDQEAWAAFWGQGTTVTVSS
VL: DIVMTQTPLSLSVTPGQPASISCRSSQNIVRSQGDTYLEWYLQKPGQSPQLLIYKVSKRFSGVPDRFSGSGSGTDFTLKISRVEAEDVGVYYCFQGSHVPWTFGGGTKVEIK
For B2, the Kd (human PD-1 protein [3]) was 0.427 nM, the koff (human PD-1 protein [3]) was 6.31e-05 s⁻¹ and the kon (human PD-1 protein [3]) was 148000 M⁻¹ s⁻¹. The “Ratio (kD)” value (human PD-1 protein [4]) was 5.27 and the “Ratio (kd)” value (human PD-1 protein [4]) was 6.45.

B3: AHF16569 (antibody, V domains shown)
VH: QVQLVQSGAEVKKPGASVKVSCKASGYTFTGYWMHWVRQAPGQGLEWIGMIHPNSDTTIYNWKFKNRVTMTRDTSISTAYMELSRLRSDDTAVYYCAGTDQEAWAAFWGQGTTVTVSS
VL: DIVMTQTPLSLSVTPGQPASISCRSSQNIVRSQGDTYLEWYLQKPGQSPQLLIYKVSKRFSGVPDRFSGSGSGTDFTLKISRVEAEDVGVYYCFQGSHVPWTFGGGTKVEIK
B3 was tested, and the Kd (human PD-1 protein [3]) was 0.339 nM, the koff (human PD-1 protein [3]) was 6.74e-05 s⁻¹ and the kon (human PD-1 protein [3]) was 199000 M⁻¹ s⁻¹. The “Ratio (kD)” value (human PD-1 protein [4]) was 6.64 and the “Ratio (kd)” value (human PD-1 protein [4]) was 6.04.

B4: AHF16559 (antibody, V domains shown)
VH: QVQLVQSGAEVKKPGASVKVSCKASGYTFTGYWMHWVRQAPGQGLEWIGMIHPNSDTTVYNEKFKNRVTMTRDTSISTAYMELSRLRSDDTAVYYCAGTDQAAWHAFWGQGTTVTVSS
VL: DIVMTQTPLSLSVTPGQPASISCRSSQNIVHSQGDTYLEWYLQKPGQSPQLLIYKVSKRFSGVPDRFSGSGSGTDFTLKISRVEAEDVGVYYCFQGSHVPWTFGGGTKVEIK
For B4, the Kd (human PD-1 protein [3]) was 0.371 nM, the koff (human PD-1 protein [3]) was 7.62e-05 s⁻¹ and the kon (human PD-1 protein [3]) was 206000 M⁻¹ s⁻¹. The “Ratio (kD)” value (human PD-1 protein [4]) was 6.06 and the “Ratio (kd)” value (human PD-1 protein [4]) was 5.34.

B5: AHF16558 (antibody, V domains shown)
VH: QVQLVQSGAEVKKPGASVKVSCKASGYTFTGYWMHWVRQAPGQGLEWIGMIHPNSDTTTYNEKFKNRVTMTRDTSISTAYMELSRLRSDDTAVYYCAGTDQEAWHAFWGQGTTVTVSS
VL: DIVMTQTPLSLSVTPGQPASISCRSSQNIVRSQGDTYLEWYLQKPGQSPQLLIYKVSKRFSGVPDRFSGSGSGTDFTLKISRVEAEDVGVYYCFQGSHVPWTFGGGTKVEIK
Binder B5 has a Kd (human PD-1 protein [3]) of 0.31 nM, a koff (human PD-1 protein [3]) of 7.69e-05 s⁻¹ and a kon (human PD-1 protein [3]) of 248000 M⁻¹ s⁻¹. For the same binder, the “Ratio (kD)” value (human PD-1 protein [4]) was 7.26 and the “Ratio (kd)” value (human PD-1 protein [4]) was 5.29.

B6: AHF16561 (antibody, V domains shown)
VH: QVQLVQSGAEVKKPGASVKVSCKASGYTFTGYWMHWVRQAPGQGLEWIGMIHPNSDTTIYNEKFKNRVTMTRDTSISTAYMELSRLRSDDTAVYYCAGTDQAAWAGFWGQGTTVTVSS
VL: DIVMTQTPLSLSVTPGQPASISCRSSQNIVRSQGDTYLEWYLQKPGQSPQLLIYKVSKRFSGVPDRFSGSGSGTDFTLKISRVEAEDVGVYYCFQGSHVPWTFGGGTKVEIK
B6 was tested, and the Kd (human PD-1 protein [3]) was 0.302 nM, the koff (human PD-1 protein [3]) was 5.53e-05 s⁻¹ and the kon (human PD-1 protein [3]) was 183000 M⁻¹ s⁻¹. The “Ratio (kD)” value (human PD-1 protein [4]) was 7.45 and the “Ratio (kd)” value (human PD-1 protein [4]) was 7.36.

B7: AHF16568 (antibody, V domains shown)
VH: QVQLVQSGAEVKKPGASVKVSCKASGYTFTGYWMHWVRQAPGQGLEWIGMIHPNSDTTIYNWKFKNRVTMTRDTSISTAYMELSRLRSDDTAVYYCAGTDQEAWMGFWGQGTTVTVSS
VL: DIVMTQTPLSLSVTPGQPASISCRSSQNIVRSQGDTYLEWYLQKPGQSPQLLIYKVSKRFSGVPDRFSGSGSGTDFTLKISRVEAEDVGVYYCFQGSHVPWTFGGGTKVEIK
B7 gave a Kd (human PD-1 protein [3]) of 0.241 nM, a koff (human PD-1 protein [3]) of 3.52e-05 s⁻¹ and a kon (human PD-1 protein [3]) of 146000 M⁻¹ s⁻¹. The “Ratio (kD)” value (human PD-1 protein [4]) was 9.34 and the “Ratio (kd)” value (human PD-1 protein [4]) was 11.6.

B8: AHF16570 (antibody, V domains shown)
VH: QVQLVQSGAEVKKPGASVKVSCKASGYTFTGYWMHWVRQAPGQGLEWIGMIHPNSDTTIYNWKFKNRVTMTRDTSISTAYMELSRLRSDDTAVYYCAGTDQAAWAGFWGQGTTVTVSS
VL: DIVMTQTPLSLSVTPGQPASISCRSSQNIVRSQGDTYLEWYLQKPGQSPQLLIYKVSKRFSGVPDRFSGSGSGTDFTLKISRVEAEDVGVYYCFQGSHVPWTFGGGTKVEIK
With B8 the Kd (human PD-1 protein [3]) was 0.2 nM, the koff (human PD-1 protein [3]) was 3.29e-05 s⁻¹ and the kon (human PD-1 protein [3]) was 164000 M⁻¹ s⁻¹. The “Ratio (kD)” value (human PD-1 protein [4]) was 11.2 and the “Ratio (kd)” value (human PD-1 protein [4]) was 12.4.

B9: AHF16563 (antibody, V domains shown)
VH: QVQLVQSGAEVKKPGASVKVSCKASGYTFTGYWMHWVRQAPGQGLEWIGMIHPNSDTTVYNWKFKNRVTMTRDTSISTAYMELSRLRSDDTAVYYCAGTDQEAWMGFWGQGTTVTVSS
VL: DIVMTQTPLSLSVTPGQPASISCRSSQNIVHSQGDTYLEWYLQKPGQSPQLLIYKVSKRFSGVPDRFSGSGSGTDFTLKISRVEAEDVGVYYCFQGSHVPWTFGGGTKVEIK
Binder B9 has a Kd (human PD-1 protein [3]) of 0.165 nM, a koff (human PD-1 protein [3]) of 3.6e-05 s⁻¹ and a kon (human PD-1 protein [3]) of 218000 M⁻¹ s⁻¹. The “Ratio (kD)” value (human PD-1 protein [4]) was 13.6 and the “Ratio (kd)” value (human PD-1 protein [4]) was 11.3.

B10: AHF16564 (antibody, V domains shown)
VH: QVQLVQSGAEVKKPGASVKVSCKASGYTFTGYWMHWVRQAPGQGLEWIGMIHPNSDTTTYNEKFKNRVTMTRDTSISTAYMELSRLRSDDTAVYYCAGTDQEAWAGFWGQGTTVTVSS
VL: DIVMTQTPLSLSVTPGQPASISCRSSQNIVRSQGDTYLEWYLQKPGQSPQLLIYKVSKRFSGVPDRFSGSGSGTDFTLKISRVEAEDVGVYYCFQGSHVPWTFGGGTKVEIK
For B10, the Kd (human PD-1 protein [3]) was 0.16 nM, the koff (human PD-1 protein [3]) was 3.68e-05 s⁻¹ and the kon (human PD-1 protein [3]) was 230000 M⁻¹ s⁻¹. The “Ratio (kD)” value (human PD-1 protein [4]) was 14.1 and the “Ratio (kd)” value (human PD-1 protein [4]) was 11.1.

B11: AHF16565 (antibody, V domains shown)
VH: QVQLVQSGAEVKKPGASVKVSCKASGYTFTGYWMHWVRQAPGQGLEWIGMIHPNSDTTVYNWKFKNRVTMTRDTSISTAYMELSRLRSDDTAVYYCAGTDQEAWHGFWGQGTTVTVSS
VL: DIVMTQTPLSLSVTPGQPASISCRSSQNIVRSQGDTYLEWYLQKPGQSPQLLIYKVSKRFSGVPDRFSGSGSGTDFTLKISRVEAEDVGVYYCFQGSHVPWTFGGGTKVEIK
B11 gave a Kd (human PD-1 protein [3]) of 0.913 nM, a koff (human PD-1 protein [3]) of 0.000118 s⁻¹ and a kon (human PD-1 protein [3]) of 130000 M⁻¹ s⁻¹. For the same binder, the “Ratio (kD)” value (human PD-1 protein [4]) was 2.46 and the “Ratio (kd)” value (human PD-1 protein [4]) was 3.45.

B12: AHF16560 (antibody, V domains shown)
VH: QVQLVQSGAEVKKPGASVKVSCKASGYTFTGYWMHWVRQAPGQGLEWIGMIHPNSDTTIYNEKFKNRVTMTRDTSISTAYMELSRLRSDDTAVYYCAGTDQEAWHGFWGQGTTVTVSS
VL: DIVMTQTPLSLSVTPGQPASISCRSSQNIVRSQGDTYLEWYLQKPGQSPQLLIYKVSKRFSGVPDRFSGSGSGTDFTLKISRVEAEDVGVYYCFQGSHVPWTFGGGTKVEIK
B12 gave a Kd (human PD-1 protein [3]) of 0.331 nM, a koff (human PD-1 protein [3]) of 6.74e-05 s⁻¹ and a kon (human PD-1 protein [3]) of 204000 M⁻¹ s⁻¹. The “Ratio (kD)” value (human PD-1 protein [4]) was 6.8 and the “Ratio (kd)” value (human PD-1 protein [4]) was 6.04.

B13: humanized antibody 1G1-h61 (antibody, human IgG4, kappa, V domains shown)
VH: QVQLVQSGAEVKKPGASVKVSCKASGYTFTGYWMHWVRQAPGQGLEWMGMIHPNSDTTTYNEKFKNRVTMTRDTSISTAYMELSRLRSDDTAVYYCAGTDQAAWFAFWGQGTTVTVSS
VL: DIVMTQTPLSLSVTPGQPASISCRSSQNIVHSNGDTYLEWYLQKPGQSPKLLIYKVSKRFSGVPDRFSGSGSGTDFTLKISRVEAEDVGVYYCFQGSHVPWTFGGGTKVEIKR
notes: as for B1
B13: binds [1]; binds [2].

B14: AHF16557 (antibody, V domains shown)
VH: QVQLVQSGAEVKKPGASVKVSCKASGYTFTGYWMHWVRQAPGQGLEWIGMIHPNSDTTVYNWKFKNRVTMTRDTSISTAYMELSRLRSDDTAVYYCAGTDQAAWAGFWGQGTTVTVSS
VL: DIVMTQTPLSLSVTPGQPASISCRSSQNIVHSQGDTYLEWYLQKPGQSPQLLIYKVSKRFSGVPDRFSGSGSGTDFTLKISRVEAEDVGVYYCFQGSHVPWTFGGGTKVEIK
In the case of B14, the Kd (human PD-1 protein [3]) is reported as 0.425 nM, the koff (human PD-1 protein [3]) is reported as 8.68e-05 s⁻¹ and the kon (human PD-1 protein [3]) is reported as 204000 M⁻¹ s⁻¹. The “Ratio (kD)” value (human PD-1 protein [4]) was 5.29 and the “Ratio (kd)” value (human PD-1 protein [4]) was 4.69.

B15: AHF16566 (antibody, V domains shown)
VH: QVQLVQSGAEVKKPGASVKVSCKASGYTFTGYWMHWVRQAPGQGLEWIGMIHPNSDTTVYNWKFKNRVTMTRDTSISTAYMELSRLRSDDTAVYYCAGTDQAAWAAFWGQGTTVTVSS
VL: DIVMTQTPLSLSVTPGQPASISCRSSQNIVHSQGDTYLEWYLQKPGQSPQLLIYKVSKRFSGVPDRFSGSGSGTDFTLKISRVEAEDVGVYYCFQGSHVPWTFGGGTKVEIK
In the case of B15, the Kd (human PD-1 protein [3]) is reported as 0.349 nM, the koff (human PD-1 protein [3]) is reported as 7.53e-05 s⁻¹ and the kon (human PD-1 protein [3]) is reported as 215000 M⁻¹ s⁻¹. For the same binder, the “Ratio (kD)” value (human PD-1 protein [4]) was 6.45 and the “Ratio (kd)” value (human PD-1 protein [4]) was 5.41.
